Source: patent US20100047226A1 (published 2010)

Assays:
Assay in all cases: cell-based or functional assay
SGK (active form) = molecular target: T1, SGK (active form) (UniProt O00141 60-431, limits assumed)
T1 sequence (looked up): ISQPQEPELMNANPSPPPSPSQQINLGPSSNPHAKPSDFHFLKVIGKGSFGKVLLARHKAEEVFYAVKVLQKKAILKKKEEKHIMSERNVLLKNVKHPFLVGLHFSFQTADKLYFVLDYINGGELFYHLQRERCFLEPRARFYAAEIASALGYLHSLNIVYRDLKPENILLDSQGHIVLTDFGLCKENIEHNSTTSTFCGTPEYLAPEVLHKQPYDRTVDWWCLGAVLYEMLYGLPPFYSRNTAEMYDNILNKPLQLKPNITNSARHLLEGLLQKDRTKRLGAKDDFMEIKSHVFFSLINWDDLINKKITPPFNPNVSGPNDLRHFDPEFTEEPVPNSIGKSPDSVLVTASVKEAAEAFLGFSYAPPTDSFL

p70S6K (active form) = p70S6K (active form) (UniProt P23443 1-421)
AKT2 (active form) = AKT2 (active form) (UniProt P31751 120-481, limits assumed)
TrkB (active form) = TrkB (active form) (UniProt Q16620 526-822, limits assumed)
PI3K[…] (active form) = molecular target: PI3K[…] (active form)
JAK3 (active form) = JAK3 (active form) (UniProt P52333 781-1124, limits assumed)
PAK3 (active form) = PAK3 (active form) (UniProt O75914 1-559, limits assumed)
Abl (active form) = Abl (active form) (UniProt P00519 27-1130, limits assumed)
Chain of Abl (active form) (P00519 27-1130 limits assumed): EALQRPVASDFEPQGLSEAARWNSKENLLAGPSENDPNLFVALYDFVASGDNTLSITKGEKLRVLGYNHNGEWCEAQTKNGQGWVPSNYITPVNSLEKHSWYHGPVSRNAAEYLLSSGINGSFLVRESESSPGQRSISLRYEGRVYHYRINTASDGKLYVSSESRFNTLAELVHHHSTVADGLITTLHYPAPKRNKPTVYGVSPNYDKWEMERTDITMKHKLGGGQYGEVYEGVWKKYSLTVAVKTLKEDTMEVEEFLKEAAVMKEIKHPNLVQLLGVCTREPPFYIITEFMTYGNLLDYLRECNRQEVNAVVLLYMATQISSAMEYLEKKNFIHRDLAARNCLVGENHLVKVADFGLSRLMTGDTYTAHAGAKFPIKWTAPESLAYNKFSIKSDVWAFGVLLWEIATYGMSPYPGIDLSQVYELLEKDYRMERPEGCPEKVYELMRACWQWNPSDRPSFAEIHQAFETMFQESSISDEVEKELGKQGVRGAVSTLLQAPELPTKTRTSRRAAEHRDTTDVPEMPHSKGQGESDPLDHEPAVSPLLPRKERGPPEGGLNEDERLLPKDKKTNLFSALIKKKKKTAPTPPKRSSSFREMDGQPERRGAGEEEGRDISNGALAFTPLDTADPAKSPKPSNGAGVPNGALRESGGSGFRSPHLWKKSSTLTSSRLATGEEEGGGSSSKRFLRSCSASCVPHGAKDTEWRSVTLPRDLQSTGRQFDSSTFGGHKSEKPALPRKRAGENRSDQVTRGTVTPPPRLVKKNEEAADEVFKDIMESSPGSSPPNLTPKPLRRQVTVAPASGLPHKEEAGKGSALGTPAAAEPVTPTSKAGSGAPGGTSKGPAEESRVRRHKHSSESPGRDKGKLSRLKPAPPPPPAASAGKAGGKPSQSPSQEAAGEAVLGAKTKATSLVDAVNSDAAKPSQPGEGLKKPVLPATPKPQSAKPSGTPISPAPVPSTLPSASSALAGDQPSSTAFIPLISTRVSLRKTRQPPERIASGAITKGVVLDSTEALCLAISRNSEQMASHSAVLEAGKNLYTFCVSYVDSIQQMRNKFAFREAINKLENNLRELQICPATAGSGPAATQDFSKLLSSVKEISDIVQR

Chain of p70S6K (active form) (P23443 1-421): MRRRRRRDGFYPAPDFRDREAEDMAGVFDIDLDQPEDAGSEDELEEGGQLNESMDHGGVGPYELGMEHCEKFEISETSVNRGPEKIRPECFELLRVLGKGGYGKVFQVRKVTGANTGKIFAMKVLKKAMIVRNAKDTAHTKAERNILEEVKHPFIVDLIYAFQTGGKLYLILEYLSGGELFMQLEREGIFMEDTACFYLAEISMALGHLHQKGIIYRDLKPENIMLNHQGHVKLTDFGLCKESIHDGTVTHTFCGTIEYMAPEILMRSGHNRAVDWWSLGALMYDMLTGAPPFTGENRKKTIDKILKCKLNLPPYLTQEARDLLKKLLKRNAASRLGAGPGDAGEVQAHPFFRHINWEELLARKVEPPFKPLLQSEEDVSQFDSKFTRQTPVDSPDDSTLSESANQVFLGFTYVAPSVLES
Chain of AKT2 (active form) (P31751 120-481 limits assumed): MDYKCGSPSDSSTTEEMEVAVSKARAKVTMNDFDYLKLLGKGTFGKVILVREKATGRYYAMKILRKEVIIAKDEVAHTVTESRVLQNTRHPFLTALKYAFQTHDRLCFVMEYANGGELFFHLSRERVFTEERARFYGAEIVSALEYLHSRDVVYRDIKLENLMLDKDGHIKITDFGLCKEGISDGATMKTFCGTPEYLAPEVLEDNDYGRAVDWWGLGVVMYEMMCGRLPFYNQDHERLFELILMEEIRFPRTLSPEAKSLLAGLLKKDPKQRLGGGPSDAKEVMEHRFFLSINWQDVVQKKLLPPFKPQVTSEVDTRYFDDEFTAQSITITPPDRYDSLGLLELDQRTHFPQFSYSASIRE
Chain of PAK3 (active form) (O75914 whole entry): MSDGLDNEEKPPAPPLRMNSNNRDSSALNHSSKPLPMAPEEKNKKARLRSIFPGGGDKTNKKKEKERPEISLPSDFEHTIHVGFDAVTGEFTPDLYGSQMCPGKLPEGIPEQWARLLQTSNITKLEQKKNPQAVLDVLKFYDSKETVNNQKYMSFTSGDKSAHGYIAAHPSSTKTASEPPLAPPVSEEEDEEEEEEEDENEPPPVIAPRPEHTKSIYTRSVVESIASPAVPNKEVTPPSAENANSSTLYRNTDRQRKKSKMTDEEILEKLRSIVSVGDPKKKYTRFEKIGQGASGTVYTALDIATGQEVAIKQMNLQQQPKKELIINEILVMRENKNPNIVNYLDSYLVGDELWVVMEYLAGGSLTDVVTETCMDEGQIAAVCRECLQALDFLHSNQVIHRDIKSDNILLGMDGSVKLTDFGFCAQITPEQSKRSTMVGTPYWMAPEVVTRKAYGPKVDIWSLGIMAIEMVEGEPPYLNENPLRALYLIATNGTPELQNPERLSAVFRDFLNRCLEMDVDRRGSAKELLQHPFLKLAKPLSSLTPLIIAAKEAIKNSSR
Chain of JAK3 (active form) (P52333 781-1124 limits assumed): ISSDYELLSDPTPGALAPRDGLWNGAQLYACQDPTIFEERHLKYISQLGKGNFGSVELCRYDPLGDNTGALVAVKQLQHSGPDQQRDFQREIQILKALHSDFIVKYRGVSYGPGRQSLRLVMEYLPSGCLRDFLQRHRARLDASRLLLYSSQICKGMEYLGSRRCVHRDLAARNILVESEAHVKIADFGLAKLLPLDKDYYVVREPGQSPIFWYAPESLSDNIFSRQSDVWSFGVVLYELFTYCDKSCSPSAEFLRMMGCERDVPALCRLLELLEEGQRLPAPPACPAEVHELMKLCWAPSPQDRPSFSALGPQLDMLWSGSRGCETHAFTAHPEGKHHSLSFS
Chain of TrkB (active form) (Q16620 526-822 limits assumed): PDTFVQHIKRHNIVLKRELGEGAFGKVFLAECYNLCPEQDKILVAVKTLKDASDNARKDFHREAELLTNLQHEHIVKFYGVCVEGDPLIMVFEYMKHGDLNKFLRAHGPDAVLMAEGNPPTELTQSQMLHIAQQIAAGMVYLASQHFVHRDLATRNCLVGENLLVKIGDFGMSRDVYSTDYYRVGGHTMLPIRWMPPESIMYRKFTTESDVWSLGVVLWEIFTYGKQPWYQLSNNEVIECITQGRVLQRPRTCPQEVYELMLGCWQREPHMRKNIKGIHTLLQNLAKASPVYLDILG

B1: ZaTa peptide (PKAc fragment flanking Thr-197) (peptide)
peptide: AKRVKGRTWTLCGTPEY
SGK (active form)
  in vitro kinase assay at ten times the IC50 for AKT1: 73%
p70S6K (active form)
  in vitro kinase assay at ten times the IC50 for AKT1: 64%
AKT2 (active form)
  in vitro kinase assay at ten times the IC50 for AKT1: 63%
TrkB (active form)
  in vitro kinase assay at ten times the IC50 for AKT1: 84%
PI3K[…] (active form)
  in vitro kinase assay at ten times the IC50 for AKT1: 72%
JAK3 (active form)
  in vitro kinase assay at ten times the IC50 for AKT1: 79%
PAK3 (active form)
  in vitro kinase assay at ten times the IC50 for AKT1: 83%
Abl (active form)
  in vitro kinase assay at ten times the IC50 for AKT1: 42%
